Assay results from US20230346885A1 (published 2023).

T1: SAGE1 peptide on HLA (human)
T1 peptide: TVLPGLTYL

T2: RLN1 peptide on HLA (human)
T2 peptide: LLLNQFSRA

T3: SAGE1 peptide on HLA (human)
T3 peptide: GLYSTVPHNV


Key:
Assay in all cases: binding, other
[1] = target: T1, SAGE1 peptide on HLA
[2] = target: T2, RLN1 peptide on HLA
[3] = target: T3, SAGE1 peptide on HLA

Row | binding result [2] | binding result [3] | Binder | other results
1 |  |  | TCR of SEQ ID NOs 539 and 540 (TCR, V domains shown) Valpha: KQEVTQIPAALSVPEGENLVLNCSFTDSAIYNLQWFRQDPGKGLTSLLLIQSSQREQTSGRLNASLDKSSGRSTLYIAASQPGDSATYLCAVRVTGANNLFFGTGTRLTVIP Vbeta: NAGVTQTPKFQVLKTGQSMTLQCAQDMNHEYMSWYRQDPGMGLRLIHYSVGAGITDQGEVPNGYNVSRLNKREFSLRLESAAPSQTSVYFCASRPVGGDYTGELFFGEGSRLTVL | binding result [1]: recognises
2 |  |  | TCR of SEQ ID NOs 541 and 542 (TCR, V domains shown) Valpha: KQEVTQIPAALSVPEGENLVLNCSFTDSAIYNLQWFRQDPGKGLTSLLLIQSSQREQTSGRLNASLDKSSGRSTLYIAASQPGDSATYLCAVDSWGKLQFGAGTQVVVTP Vbeta: NAGVTQTPKFQVLKTGQSMTLQCAQDMNHEYMSWYRQDPGMGLRLIHYSVGAGITDQGEVPNGYNVSRSTTEDFPLRLLSAAPSQTSVYFCASSSLGLGDYGYTFGSGTRLTVV | binding result [1]: recognises
3 | recognises |  | TCR of SEQ ID NOs 531 and 532 (TCR, V domains shown) Valpha: KQEVTQIPAALSVPEGENLVLNCSFTDSAIYNLQWFRQDPGKGLTSLLLIQSSQREQTSGRLNASLDKSSGRSTLYIAASQPGDSATYLCAVLSNFGNEKLTFGTGTRLTIIP Vbeta: NAGVTQTPKFRILKIGQSMTLQCTQDMNHNYMYWYRQDPGMGLKLIYYSVGAGITDKGEVPNGYNVSRSTTEDFPLRLLSAAPSQTSVYFCASTREAGLDYGYTFGSGTRLTVV | 
4 |  | recognises | TCR of SEQ ID NOs 535 and 536 (TCR, V domains shown) Valpha: KQEVTQIPAALSVPEGENLVLNCSFTDSAIYNLQWFRQDPGKGLTSLLLIQSSQREQTSGRLNASLDKSSGRSTLYIAASQPGDSATYLCAVGGYQKVTFGTGTKLQVIP Vbeta: NAGVTQTPKFRVLKTGQSMTLLCAQDMNHNYMYWYRQDPGMGLKLIYYSVGAGITDKGEVPNGYNVSRSTTEDFPLRLELAAPSQTSVYFCASRVDTLGEAFFGQGTRLTVV | 
5 | recognises |  | TCR of SEQ ID NOs 527 and 528 (TCR, V domains shown) Valpha: KQEVTQIPAALSVPEGENLVLNCSFTDSAIYNLQWFRQDPGKGLTSLLLIQSSQREQTSGRLNASLDKSSGRSTLYIAASQPGDSATYLCAVRPSGSARQLTFGSGTQLTVLP Vbeta: NAGVTQTPKFQVLKTGQSMTLQCAQDMNHEYMSWYRQDPGMGLRLIHYSVGAGITDQGEVPNGYNVSRSTTEDFPLRLLSAAPSQTSVYFCASSYGVYTEAFFGQGTRLTVV | 
6 |  | recognises | TCR of SEQ ID NOs 533 and 534 (TCR, V domains shown) Valpha: KQEVTQIPAALSVPEGENLVLNCSFTDSAIYNLQWFRQDPGKGLTSLLLIQSSQREQTSGRLNASLDKSSGRSTLYIAASQPGDSATYLCAVSGYSTLTFGKGTMLLVSP Vbeta: NAGVTQTPKFQVLKTGQSMTLQCAQDMNHEYMSWYRQDPGMGLRLIHYSVGAGITDQGEVPNGYNVSRSTTEDFPLRLLSAAPSQTSVYFCASSEGPFSEAFFGQGTRLTVV | 
7 |  | recognises | TCR of SEQ ID NOs 537 and 538 (TCR, V domains shown) Valpha: KQEVTQIPAALSVPEGENLVLNCSFTDSAIYNLQWFRQDPGKGLTSLLLIQSSQREQTSGRLNASLDKSSGRSTLYIAASQPGDSATYLCAVGGYDKVIFGPGTSLSVIP Vbeta: NAGVTQTPKFQVLKTGQSMTLQCAQDMNHEYMSWYRQDPGMGLRLIHYSVGAGITDQGEVPNGYNVSRSTTEDFPLRLLSAAPSQTSVYFCASRLGQFGQAFFGQGTRLTVV | 
8 | recognises |  | TCR of SEQ ID NOs 529 and 530 (TCR, V domains shown) Valpha: KQEVTQIPAALSVPEGENLVLNCSFTDSAIYNLQWFRQDPGKGLTSLLLIQSSQREQTSGRLNASLDKSSGRSTLYIAASQPGDSATYLCAVRPSTDSWGKLQFGAGTQVVVTP Vbeta: NAGVTQTPKFQVLKTGQSMTLQCAQDMNHEYMSWYRQDPGMGLRLIHYSVGAGITDQGEVPNGYNVSRSTTEDFPLRLLSAAPSQTSVYFCASSPTGYYGYTFGSGTRLTVV | 
